Experimental data as given in IntAct's records for PubMed 29892012.

B1: Zyxin (Homo sapiens), Q15942 (parent)
chain: MAAPRPSPAISVSVSAPAFYAPQKKFGPVVAPKPKVNPFRPGDSEPPPAPGAQRAQMGRVGEIPPPPPEDFPLPPPPLAGDGDDAEGALGGAFPPPPPPIEESFPPAPLEEEIFPSPPPPPEEEGGPEAPIPPPPQPREKVSSIDLEIDSLSSLLDDMTKNDPFKARVSSGYVPPPVATPFSSKSSTKPAAGGTAPLPPWKSPSSSQPLPQVPAPAQSQTQFHVQPQPQPKPQVQLHVQSQTQPVSLANTQPRGPPASSPAPAPKFSPVTPKFTPVASKFSPGAPGGSGSQPNQKLGHPEALSAGTGSPQPPSFTYAQQREKPRVQEKQHPVPPPAQNQNQVRSPGAPGPLTLKEVEELEQLTQQLMQDMEHPQRQNVAVNELCGRCHQPLARAQPAVRALGQLFHIACFTCHQCAQQLQGQQFYSLEGAPYCEGCYTDTLEKCNTCGEPITDRMLRATGKAYHPHCFTCVVCARPLEGTSFIVDQANRPHCVPDYHKQYAPRCSVCSEPIMPEPGRDETVRVVALDKNFHMKCYKCEDCGKPLSIEADDNGCFPLDGHVLCRKCHTARAQT
partner: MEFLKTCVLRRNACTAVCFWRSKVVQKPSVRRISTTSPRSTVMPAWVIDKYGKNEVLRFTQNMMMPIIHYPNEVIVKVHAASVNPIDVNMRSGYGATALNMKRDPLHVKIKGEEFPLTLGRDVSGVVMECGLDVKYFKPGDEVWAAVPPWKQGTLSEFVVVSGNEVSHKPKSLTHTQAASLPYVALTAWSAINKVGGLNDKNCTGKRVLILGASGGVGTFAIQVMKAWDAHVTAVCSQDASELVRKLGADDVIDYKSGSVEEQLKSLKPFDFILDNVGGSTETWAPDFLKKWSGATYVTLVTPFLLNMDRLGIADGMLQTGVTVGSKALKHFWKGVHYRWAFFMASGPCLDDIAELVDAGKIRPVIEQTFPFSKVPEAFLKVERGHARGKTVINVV
B2: Zinc finger protein 786 (Homo sapiens), Q8N393 (parent)
chain: MAEPPRLPLTFEDVAIYFSEQEWQDLEAWQKELYKHVMRSNYETLVSLDDGLPKPELISWIEHGGEPFRKWRESQKSGNIICSSVDMHFDPGFEEQLFWGSQQAMNSGKTKSHFQLDPESQCSFGSFVSFRPDQGITLGSPQRHDARAPPPLACGPSESTLKEGIPGPRNLDLPGLWDVPAWESTQHPWPVCGESCWENNHLVMHQRGHSKDRTRRAWEKFNKRAETQMPWSSPRVQRHFRCGVCGKSFRRKLCLLRHLAAHTGRGPFRNADGEMCFRHELTHPSHRLPQQGEKPAQCTPCGKRSLPVDSTQARRCQHSREGPASWREGRGASSSVHSGQKPGSRLPQEGNSHQEGDTEALQHGAEGPCSCSECGERSPMSARLASPCRAHTGEKPFQCAHCTKRFRLRRLLQVHQHAHGGERPFSCRKCGKGFAKQCKLTEHIRVHSGEKPFRCAKCGRNFRQRGQLLRHQRLHTDEKPFQCPECGLSFRLESMLRAHRLRHGGERPFSCSECGRGFTHQCKLREHLRVHSGERPFQCLKCDKRFRLKGILKAHQHTHSKERPFSCGECGKGFTRQSKLTEHLRVHSGERPFQCPECNRSFRLKGQLLSHQRLHTGERPFQCPECDKRYRVKADMKAHQLLHSGEMPFSCECGKGFVKHSKLIEHIRTHTGEKPFQCPKCDKSFRLKAQLLSHQGLHTGERPFHCPECDKNFRERGHMLRHQRIHRPERPFACGDCGKGFIYKSKLAEHIRVHTKSCPAPNELDIKKRLSQLFAMIEADWS
B3: Cell division cycle-associated 7-like protein (Homo sapiens), Q96GN5 (parent)
chain: MELATRYQIPKEVADIFNAPSDDEEFVGFRDDVPMETLSSEESCDSFDSLESGKQQDVRFHSKYFTEELRRIFIEDTDSETEDFAGFTQSDLNGKTNPEVMVVESDLSDDGKASLVSEEEEDEEEDKATPRRSRSRRSSIGLRVAFQFPTKKLANKPDKNSSSEQLFSSARLQNEKKTILERKKDCRQVIQREDSTSESEDDSRDESQESSDALLKRTMNIKENKAMLAQLLAELNSMPDFFPVRTPTSASRKKTVRRAFSEGQITRRMNPTRSARPPEKFALENFTVSAAKFAEEFYSFRRRKTIGGKCREYRRRHRISSFRPVEDITEEDLENVAITVRDKIYDKVLGNTCHQCRQKTIDTKTVCRNQGCCGVRGQFCGPCLRNRYGEDVRSALLDPDWVCPPCRGICNCSYCRKRDGRCATGILIHLAKFYGYDNVKEYLESLQKELVEDN
partner: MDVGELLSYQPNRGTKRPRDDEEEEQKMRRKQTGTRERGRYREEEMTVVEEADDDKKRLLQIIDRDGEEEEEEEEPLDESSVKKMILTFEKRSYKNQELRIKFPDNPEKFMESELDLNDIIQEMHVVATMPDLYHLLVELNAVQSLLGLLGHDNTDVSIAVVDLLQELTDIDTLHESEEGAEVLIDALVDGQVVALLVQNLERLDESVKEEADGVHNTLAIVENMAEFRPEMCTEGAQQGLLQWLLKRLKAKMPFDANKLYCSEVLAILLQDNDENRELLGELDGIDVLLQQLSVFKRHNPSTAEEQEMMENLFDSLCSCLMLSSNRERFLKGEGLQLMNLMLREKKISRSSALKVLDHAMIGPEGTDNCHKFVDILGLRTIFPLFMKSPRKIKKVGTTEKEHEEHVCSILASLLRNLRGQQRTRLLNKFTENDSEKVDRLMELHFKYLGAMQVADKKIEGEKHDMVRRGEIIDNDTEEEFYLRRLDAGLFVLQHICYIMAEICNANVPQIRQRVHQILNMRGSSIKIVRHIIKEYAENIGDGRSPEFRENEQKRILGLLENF
B4: Cell division cycle-associated 7-like protein (Homo sapiens), Q96GN5 (parent)
chain: B3 chain
partner: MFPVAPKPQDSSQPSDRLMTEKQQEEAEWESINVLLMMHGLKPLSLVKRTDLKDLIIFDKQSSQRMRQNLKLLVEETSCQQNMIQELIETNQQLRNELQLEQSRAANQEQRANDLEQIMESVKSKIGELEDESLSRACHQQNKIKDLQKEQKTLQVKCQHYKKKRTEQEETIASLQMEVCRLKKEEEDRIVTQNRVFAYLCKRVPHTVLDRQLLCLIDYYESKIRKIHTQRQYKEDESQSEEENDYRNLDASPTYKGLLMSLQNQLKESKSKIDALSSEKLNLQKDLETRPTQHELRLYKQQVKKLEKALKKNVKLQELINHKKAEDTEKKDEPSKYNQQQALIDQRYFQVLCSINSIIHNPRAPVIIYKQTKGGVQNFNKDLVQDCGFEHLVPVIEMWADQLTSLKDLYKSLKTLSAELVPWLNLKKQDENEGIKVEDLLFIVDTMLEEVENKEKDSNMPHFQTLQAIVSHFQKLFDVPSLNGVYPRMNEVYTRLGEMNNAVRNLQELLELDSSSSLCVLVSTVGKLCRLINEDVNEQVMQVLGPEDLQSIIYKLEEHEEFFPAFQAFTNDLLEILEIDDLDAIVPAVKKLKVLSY
B5: Cell division cycle-associated 7-like protein (Homo sapiens), Q96GN5 (parent)
chain: B3 chain
partner: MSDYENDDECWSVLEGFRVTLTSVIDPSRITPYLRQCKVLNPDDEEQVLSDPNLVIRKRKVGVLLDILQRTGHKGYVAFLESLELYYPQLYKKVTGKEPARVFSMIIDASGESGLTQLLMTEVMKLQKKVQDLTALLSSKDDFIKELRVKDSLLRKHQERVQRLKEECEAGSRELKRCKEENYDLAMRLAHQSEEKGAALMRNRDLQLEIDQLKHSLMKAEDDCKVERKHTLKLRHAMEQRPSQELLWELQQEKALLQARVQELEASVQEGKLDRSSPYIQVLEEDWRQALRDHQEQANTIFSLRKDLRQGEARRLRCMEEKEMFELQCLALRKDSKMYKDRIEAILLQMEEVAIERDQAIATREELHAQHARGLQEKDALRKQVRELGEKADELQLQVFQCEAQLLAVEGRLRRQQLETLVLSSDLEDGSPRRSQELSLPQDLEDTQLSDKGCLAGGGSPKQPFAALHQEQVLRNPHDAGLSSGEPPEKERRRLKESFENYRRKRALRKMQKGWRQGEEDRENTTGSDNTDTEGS

Variants of: B1
Details: with rt4i1_human RTN4IP1, Q8WWV3

Row | Variant | effect of a mutation on the interaction
1 | R167G | with no effect

Variants of: B2
Details: with kr103_human KRTAP10-3, P60369
Chain of kr103_human KRTAP10-3, P60369 (P60369 whole entry): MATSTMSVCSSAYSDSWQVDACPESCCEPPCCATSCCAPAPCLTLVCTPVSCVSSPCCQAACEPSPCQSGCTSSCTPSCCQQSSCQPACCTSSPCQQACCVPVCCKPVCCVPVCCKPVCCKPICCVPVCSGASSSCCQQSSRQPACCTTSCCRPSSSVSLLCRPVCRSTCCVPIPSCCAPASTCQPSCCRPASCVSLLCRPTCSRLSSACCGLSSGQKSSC

Row | Variant | effect of a mutation on the interaction
2 | S112R | with no effect

Variants of: B2
Details: with kr103_human KRTAP10-3, P60369
Remark: another data set of the same source

Row | Variant | effect of a mutation on the interaction
3 | V37A | with no effect

Variants of: B3
Details: with ctbl1_human CTNNBL1, Q8WYA6

Row | Variant | effect of a mutation on the interaction
4 | R268H | with no effect

Variants of: B4
Details: with cep70_human CEP70, Q8NHQ1

Row | Variant | effect of a mutation on the interaction
5 | R268H | with no effect

Variants of: B5
Details: with card9_human CARD9, Q9H257

Row | Variant | effect of a mutation on the interaction
6 | R268H | with no effect
